What was measured:
GST-OST1/SnRK2.6 = GST-OST1/SnRK2.6 (UniProt Q940H6)
GST-SnRK2.2 = biological target: T1, GST-SnRK2.2 (UniProt Q39192)
T1 sequence: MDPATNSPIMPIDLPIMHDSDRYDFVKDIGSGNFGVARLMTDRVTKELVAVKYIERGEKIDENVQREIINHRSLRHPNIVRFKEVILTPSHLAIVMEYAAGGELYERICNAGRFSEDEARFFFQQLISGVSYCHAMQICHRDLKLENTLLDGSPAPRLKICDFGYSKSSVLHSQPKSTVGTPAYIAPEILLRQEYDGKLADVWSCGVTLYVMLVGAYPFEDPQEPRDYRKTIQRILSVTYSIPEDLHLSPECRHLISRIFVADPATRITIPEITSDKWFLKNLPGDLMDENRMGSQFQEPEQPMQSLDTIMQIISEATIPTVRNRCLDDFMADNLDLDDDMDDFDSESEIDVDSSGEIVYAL

GST-OST1/SnRK2.6 (D140A) = GST-OST1/SnRK2.6 (D140A) (UniProt Q940H6)
GST-SnRK2.3 = biological target: T2, GST-SnRK2.3 (UniProt Q39193)
T2 sequence: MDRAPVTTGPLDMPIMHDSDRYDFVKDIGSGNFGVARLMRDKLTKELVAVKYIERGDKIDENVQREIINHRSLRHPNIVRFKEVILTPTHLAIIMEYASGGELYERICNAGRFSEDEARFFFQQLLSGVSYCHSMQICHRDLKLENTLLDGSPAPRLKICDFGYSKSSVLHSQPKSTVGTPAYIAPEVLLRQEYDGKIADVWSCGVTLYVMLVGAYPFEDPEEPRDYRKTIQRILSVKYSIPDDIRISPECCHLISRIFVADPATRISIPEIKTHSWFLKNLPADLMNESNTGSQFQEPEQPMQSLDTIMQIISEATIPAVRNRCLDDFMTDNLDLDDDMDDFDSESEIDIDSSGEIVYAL

GST-SnRK2.4 = biological target: T3, GST-SnRK2.4 (UniProt P43291)
T3 sequence: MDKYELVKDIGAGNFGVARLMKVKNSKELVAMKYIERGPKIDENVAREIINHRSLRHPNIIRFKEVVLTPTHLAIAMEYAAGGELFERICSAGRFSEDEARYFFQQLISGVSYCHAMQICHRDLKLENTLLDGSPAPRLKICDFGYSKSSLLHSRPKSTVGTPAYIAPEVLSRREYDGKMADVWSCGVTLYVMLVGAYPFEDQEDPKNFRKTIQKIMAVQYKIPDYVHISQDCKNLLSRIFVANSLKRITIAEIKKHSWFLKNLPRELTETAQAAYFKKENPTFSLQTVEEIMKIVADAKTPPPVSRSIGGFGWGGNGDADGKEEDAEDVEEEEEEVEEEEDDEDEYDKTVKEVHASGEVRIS

[1] = biological target: T4, dephosphorylated recombinant His-OST1/SnRK2.6 (UniProt Q940H6)
T4 sequence: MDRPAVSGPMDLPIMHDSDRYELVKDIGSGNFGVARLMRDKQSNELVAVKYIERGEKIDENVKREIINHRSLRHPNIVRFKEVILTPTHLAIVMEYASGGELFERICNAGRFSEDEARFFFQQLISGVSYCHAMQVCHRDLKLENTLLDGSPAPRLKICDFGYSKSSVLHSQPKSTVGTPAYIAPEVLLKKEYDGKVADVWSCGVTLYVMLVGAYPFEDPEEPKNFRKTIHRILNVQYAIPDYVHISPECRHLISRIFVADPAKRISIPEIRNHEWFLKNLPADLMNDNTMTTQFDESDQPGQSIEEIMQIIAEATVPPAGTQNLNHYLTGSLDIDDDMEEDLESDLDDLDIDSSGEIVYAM

Sequence of CPK23 (chain, as listed by the source): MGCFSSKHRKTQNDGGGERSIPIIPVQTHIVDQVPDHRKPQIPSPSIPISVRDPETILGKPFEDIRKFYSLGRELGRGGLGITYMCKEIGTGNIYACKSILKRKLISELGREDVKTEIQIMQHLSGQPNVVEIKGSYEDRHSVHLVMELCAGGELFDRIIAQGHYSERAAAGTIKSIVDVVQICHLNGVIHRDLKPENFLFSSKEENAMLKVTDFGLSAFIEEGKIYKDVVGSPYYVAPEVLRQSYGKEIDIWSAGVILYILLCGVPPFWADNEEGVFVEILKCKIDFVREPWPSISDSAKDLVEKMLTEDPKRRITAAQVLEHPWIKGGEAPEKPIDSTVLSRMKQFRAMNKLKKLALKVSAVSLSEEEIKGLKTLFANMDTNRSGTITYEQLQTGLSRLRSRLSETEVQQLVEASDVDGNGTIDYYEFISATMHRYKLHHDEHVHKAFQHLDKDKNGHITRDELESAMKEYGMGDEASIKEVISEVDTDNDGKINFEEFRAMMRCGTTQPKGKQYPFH

With CPK23 the “in vitro phosphorylation assay with 32P-ATP after dephosphorylation of OST1” value (GST-OST1/SnRK2.6) was “did not phosphorylate OST1/SnRK2.6 after dephosphorylation”.
With GST-M3Kδ1 kinase domain the “SnRK2 kinase activity, in-gel kinase assay in vitro” value (shortened to “SnRK2 kinase activity”) (GST-SnRK2.2) was “M3Kδ1 strongly activated SnRK2.2 and 2.3”, the “in vitro phosphorylation assay with 32P-ATP” value (GST-OST1/SnRK2.6 (D140A)) was “the M3Kδ1, 66 and 67 kinase domains directly phosphorylated the kinase inactive OST1/SnRK2.6 (D140A) mutant isoform” and the “phosphorylation sites by LC-MS/MS after in vitro phosphorylation” value (GST-OST1/SnRK2.6 (D140A)) was “M3Kδ1 phosphorylated the OST1/SnRK2.6 residues Ser171, Ser175 and Thr176 in the OST1 activation loop”. The “OST1/SnRK2.6 activity, in-gel kinase assay in vitro” value (“OST1/SnRK2.6 activity” for short) (GST-OST1/SnRK2.6) was “the truncated kinase domain (M3Kδ1_KD) has a higher activity than the full length M3Kδ1 protein (M3Kδ1_Full)”, the “SnRK2 kinase activity” value (GST-SnRK2.3) was “M3Kδ1 strongly activated SnRK2.2 and 2.3” and the “SnRK2 kinase activity” value (GST-SnRK2.4) was “M3Kδ1 also activated SnRK2.4 kinase in vitro”. The “OST1/SnRK2.6 activity” value [1] was “three M3Ks from the subgroup B3, named M3Kδ1, 66 and 67, were found to strongly activate OST1/SnRK2.6”.
For GST-M3Kδ7 kinase domain, the “in vitro phosphorylation assay with 32P-ATP” value (GST-OST1/SnRK2.6 (D140A)) was “the M3Kδ1, 66 and 67 kinase domains directly phosphorylated the kinase inactive OST1/SnRK2.6 (D140A) mutant isoform”, the “SnRK2 kinase activity” value (GST-SnRK2.3) was “SnRK2.3 was also activated by M3Kδ6 and M3Kδ7” and the “OST1/SnRK2.6 activity” value [1] was “three M3Ks from the subgroup B3, named M3Kδ1, 66 and 67, were found to strongly activate OST1/SnRK2.6”.
With M3Kδ6 kinase domain mutant (K775W) the “OST1/SnRK2.6 activity” value [1] was “OST1/SnRK2 kinase activation was not induced by an inactive mutant M3K kinase protein, M3Kδ6 (K775W)”.
With CPK6 the “in vitro phosphorylation assay with 32P-ATP after dephosphorylation of OST1” value (GST-OST1/SnRK2.6) was “did not phosphorylate OST1/SnRK2.6 after dephosphorylation”.
For full-length His-M3Kδ1, the “OST1/SnRK2.6 activity” value (GST-OST1/SnRK2.6) was “Full-length M3Kδ1 activates OST1/SnRK2.6 in vitro”.
In the case of GST-M3Kδ6 kinase domain, the “in vitro phosphorylation assay with 32P-ATP” value (GST-OST1/SnRK2.6 (D140A)) is reported as “the M3Kδ1, 66 and 67 kinase domains directly phosphorylated the kinase inactive OST1/SnRK2.6 (D140A) mutant isoform”, the “SnRK2 kinase activity” value (GST-SnRK2.3) is reported as “SnRK2.3 was also activated by M3Kδ6 and M3Kδ7” and the “OST1/SnRK2.6 activity” value [1] is reported as “three M3Ks from the subgroup B3, named M3Kδ1, 66 and 67, were found to strongly activate OST1/SnRK2.6”.

— patent US20220154204
